Where “and” joins values, the source holds several entries; their conditions need not be identical. Equal entries are not always repeated.
Assays:
[1] = target: His6-tagged BAKΔTM (BAK lacking its transmembrane domain, residues 1–186) (human) (UniProt Q16611); assay: cross-linking
[2] = target: MCL1ΔTM (cleaved by thrombin from GST-MCL1ΔTM); assay: SPR
[3] = target: BCLXLΔTM (cleaved by thrombin from GST-BCLXLΔTM); assay: SPR

His6-tagged BAKΔTM (BAK lacking its transmembrane domain, residues 1–186) (from UniProt Q16611 1-186) (domain or fragment)
stoichiometry N [1]: 2 and 3

B1: His6-tagged BAKΔTM (BAK lacking its transmembrane domain, residues 1–186) (domain or fragment)
chain: MASGQGPGPPRQECGEPALPSASEEQVAQDTEEVFRSYVFYRHQQEQEAEGVAAPADPEMVTLPLQPSSTMGQVGRQLAIIGDDINRRYDSEFQTMLQHLQPTAENAYEYFTKIATSLFESGINWGRVVALLGFGYRLALHVYQHGLTGFLGQVTRFVVDFMLHHCIARWIAQRGGWVAALNLGNG
fold less tight binding than BAK BH3 peptide [2]: 100 fold | fold less tight binding than BAK BH3 peptide [3]: 100 fold
